Results from patent US6613742B1, “Chemokine-derived synthetic peptides” (Thomas Jefferson University, priority 1999, dated 2003).
Where no end group is shown, it is not given here.

Molecular target: T1, CXCR4 (Homo sapiens, UniProt P61073)
T1 construct: expressed in transfected cells; host or cells: QT6 cells, calcium phosphate transfection
Assay: HIV-1 gp 120-CXCR4 mediated cell-cell fusion assay (luciferase reporter)
Type: cell-based
Conditions: for inhibiting cell-cell fusion, compared with N-terminal SDF-1 peptides SEQ ID NOS:8 and 10: effector 293 cells + QT6 target cells (CD4, CXCR4), peptide concentration 25 μM (FIG. 1)

T1 sequence (P61073 whole entry): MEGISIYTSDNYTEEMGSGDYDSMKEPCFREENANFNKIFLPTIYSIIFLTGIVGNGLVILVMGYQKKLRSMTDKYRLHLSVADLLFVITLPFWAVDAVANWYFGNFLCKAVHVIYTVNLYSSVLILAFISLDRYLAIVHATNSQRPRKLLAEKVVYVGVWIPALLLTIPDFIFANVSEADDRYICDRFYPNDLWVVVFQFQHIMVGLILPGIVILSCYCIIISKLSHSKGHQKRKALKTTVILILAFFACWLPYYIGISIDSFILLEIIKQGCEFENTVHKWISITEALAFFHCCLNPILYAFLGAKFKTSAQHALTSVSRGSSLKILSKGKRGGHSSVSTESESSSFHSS

Sequence	inhibiting cell-cell fusion, compared with N-terminal SDF-1 peptides SEQ ID NOS:8 and 10	activity in inhibiting cell-cell fusion (higher concentration of 50 μM)
KPVSLSYRCPCRFFGGQGLKWIQEYLEKALN (cysteine pairing not given here) [SEQ ID NO:5, SDF-1 amino acids 1-14 and 55-67 linked by a (Gly)4 bridge]	substantially more effective	–
LKWIQEYLEKALN [SEQ ID NO:9, C-terminal SDF-1 peptide prepared for comparison, reference compound]	–	only negligibly active
LSYRCPCRFFGGGGLKWIQEYLEKALN (cysteine pairing not given here) [SEQ ID NO:4, SDF-1 amino acids 5-14 and 55-67 linked by (Gly)4]	substantially more effective	–
LSYRCPCRFFGGLKWIQEYLEKALN (cysteine pairing not given here) [SEQ ID NO:6, SDF-1 amino acids 5-14 and 55-67 linked by (Gly)2]	substantially more effective	–
LSYRCPCRFFKKKKLKWIQEYLEKALN (cysteine pairing not given here) [SEQ ID NO:7, SDF-1 amino acids 5-14 and 55-67 linked by (Lys)4]	substantially more effective	–
